# Assay results as given in patent US20190314479A1.
# Biological target: HLA-A2 molecules
# Assay: T2A2 peptide binding assay to HLA-A2
row,Substance,T2A2 Binding
1,HPV-16 E6 agonist peptide E6-A1 (L19V) (peptide; other documents disagree on this pair),1340
2,HPV-16 E6 agonist peptide E6-A2 (C80V) (peptide; other documents disagree on this pair),877
3,HPV-16 E6 agonist peptide E6-A3 (Q91L/L99V) (peptide; other documents disagree on this pair),1280
4,HPV-16 E6 native peptide E6-1 (E6 11-19),853
5,HPV-16 E7 agonist peptide E7-A1 (T19V) (peptide; other documents disagree on this pair),1170
6,HPV-16 E7 agonist peptide E7-A2 (L15V) (peptide; other documents disagree on this pair),1530
7,HPV-16 E7 agonist peptide E7-A3 (T86V) (peptide; other documents disagree on this pair),1260

# Biological target: HLA-A2 molecules
# Assay: T2A2 peptide binding assay to HLA-A2, negative control
row,Substance,T2A2 Binding
1,NEG (Negative control) (peptide),812
